Results as given in the nanobody polyreactivity screen of Harvey et al. (2022).

Assay: yeast display, Sf9 membrane polyspecificity reagent, FACS + sequencing; frameworks hold sequencing errors
Procedure, shortened: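 Genes from sorted yeast were amplified by colony PCR, read by MiSeq 2 × 250 sequencing and filtered on CDR length. These cells carried a synthetic nanobody library in Saccharomyces cerevisiae BJ5465 and were sorted by FACS into low and high (top ~1%) gates on anti-HA and streptavidin fluorescence. Polyreactivity is labelled according to the gate of origin.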

Sequence	polyreactivity (PSR sort gate)
QVQLVESGGGLVQAGGSLRLSCAASGITFRRYTMGWYRQAPGKERELVAAITTNAGSTYYADSVKGRFTISRDNAKNTVYLQMNSLKPEDTAVYYCAARWYYPYRTRYSSSYGYWGQGTQVTVSS	high polyreactivity
QVQLVESGGGLVQAGGSLRLSCAASGITFRSYAMGWYRQAPGKDRELVAAISRTGGRTYYADSVKGRFTISRDNAKNTVYLQMNTLKAEDTAVYYCAAGGYSPYSLVGYDYWGQGTQVTVSS	high polyreactivity
QVQLVESGGGLVQAGGSLRLSCAASGITFRSYAMGWYRQAPGKERELVAAISTSGGRTYYADSVKGRFTISRDNAKNTVYLQMNSLKPEDTAVYYCNKVGAVYGYYAYGLGYWGQGTQVTVSS	high polyreactivity
QVQLVESGGGLVQAGGSLRLSCAASGITFRTNAMGSSRQAPGKERELVAAITTNGGNTYYADSVKGRFTISRDNAKNTVYLQMNSLKPEDTAVYYCNTATYVDSFPDPGDHWGQGTQVTVSS	low polyreactivity
QVQLVESGGGLVQAGGSLRLSCAASGITFRTNAMGWYRQAPGKERDLVAAIRTGYSTYYADSVKGRFTISRDNAKNPVYLQMNSLKPEDTAVYYCNAVRYSPVFRRKYDYWGQGTQVTVSS	high polyreactivity
QVQLVESGGGLVQAGGSLRLSCAASGITFRTNTMGWYRQAPGKERELVAAISRGGTSTYYADSVKGRFTISRDNAKNTVYLQMNSLKPEDTAVYYCAADTRFYSGRGTVSGDYWGQGTQVTVSS	low polyreactivity
QVQLVESGGGLVQAGGSLRLSCAASGITFRTNTMGWYRQAPGKERELVAAITRSGVTTYYADSVKGRFTISRDNAKNTVYLQMNSLKPEDTAVYYCAAKSFYAHYDYWGQGTQVTVSS	high polyreactivity
QVQLVESGGGLVQAGGSLRLSCAASGITFRTYAMGWYRQALGKERELVAVITWSGGRTYYADSVKGRFTISRDNANNTVYLQMHSLKPEDTAVYYCNALAYYIRYYYWGQGTQVTVSS	high polyreactivity
QVQLVESGGGLVQAGGSLRLSCAASGITFRTYAMGWYRQAPGKERELVAAITRGDSTYYADSVKGRFTISRDNAKNSVYLQMNSLKPEETAVYYCAKESYIVNSRYYTGKMYYWGQGTQVTVSS	low polyreactivity
QVQLVESGGGLVQAGGSLRLSCAASGITFRVYAMGWYRPAPGKERELVAAITSSGGSTYYADSVKGRFTISRDYAKNTVYLQMNSLKPEDTAVYYCNKVTYGYAYWRYDGYDYWGQGTQVTVSS	low polyreactivity
QVQLVESGGGLVQAGGSLRLSCAASGITFRVYVMGWYRQAPGKERELVAAITSGTSTYYADSVKGRITISRDNAKNTVYLQMNRLKPEDTAVYYCAALIFYGDYIEYDYWGQGTQVTVSS	low polyreactivity
QVQLVESGGGLVQAGGSLRLSCAASGITFRWYAMGWYRPAPGKEWELVAAMNSRGTSTYYADSVKGRFTISRDNAKNTVYLQMNSLKPEDTSVYYCAATYLYIHGGFRPQYDYWGQGTQVTVSS	high polyreactivity
QVQLVESGGGLVQAGGSLRLSCAASGITFRYYAMGWYRQAPGKERELVARITTDGSTHYADSVKGRFTISRDNAKNTVYLQMNSLKPEDTAVYYCNARHRNLAEYDYWGQGTQVTVSS	low polyreactivity
QVQLVESGGGLVQAGGSLRLSCAASGITFRYYAMGWYRQAPGKERELVATISRGVRTNYADSVKGRFTISRDNAKNTVYLQMNSLKPEDTAVYYCNADYASARRYDYWGQGTQVTVSS	high polyreactivity
QVQLVESGGGLVQAGGSLRLSCAASGITFSDYAMGWYRQAPGKERELVAGITSGGSTYYADSVKGRFTISRDNAKNTVYLQMNSLKPEDTAVYYCAAVRRWKYDWGQGTQVTVSS	high polyreactivity
QVQLVESGGGLVQAGGSLRLSCAASGITFSGHAMGWYRQAPGKERELVAAITGSGGGTYYADSVMGRFTISRDNAKNTVYLQMNCLKPEDTAVYYCNADNYYYSGFDYWGQGTQVTVSS	low polyreactivity
QVQLVESGGGLVQAGGSLRLSCAASGITFSGNAMGWYRPATGKERELVAGISRRGGSTYYADSVKGRFTISRDNAKNTVYLEMNSLKPEDTAVYYCARQFRRYYYAGYRYDYWGQGTQVTVSS	high polyreactivity
QVQLVESGGGLVQAGGSLRLSCAASGITFSGNAMGWYRQAPGKERELVAAISGRGGSTYYADSVKGRFTISRDNAKNTVYLQMNSLKPEDTAVYYCAARVPSPYVATYYYWGQGTQVTVSS	high polyreactivity
QVQLVESGGGLVQAGGSLRLSCAASGITFSHNAMGWYRQAPGKERELVAAITRSGGSTYYADSVKGRFTISRDNAKNTVYLQMNSLKPEDTAVYYCATEDYYRQYGYWSLSRMDHWGQGTQVTVSS	low polyreactivity
QVQLVESGGGLVQAGGSLRLSCAASGITFSLYAMGWYRQAPGKERELVAAITRSGGSTYYADSVKGRFTISRDNAKNTVYLQMNSLKPEDTAVYYCAALRPGVRRYYYWGHGTQVTVSS	high polyreactivity

Sequence	polyreactivity (PSR sort gate)
QVQLVESGGGLVQAGGSLRLSCAASGITFSRNAMGWYRQAPGKERELVAVISTRGGRTYYADSVKGRFTISRDNAKNTFYLQMNSLKPEDTAVYYCAASPDPYWRRMDYWGQGTQVTVSS	high polyreactivity
QVQLVESGGGLVQAGGSLRLSCAASGITFSRNGMGWYRQAPGKERELVAAISTSGDSTDYADSVKGRFTISRDNAKNTVYLQMNSLKPEDTAVYYCAASYAFLYYGYDSWGQGTQVTVSS	low polyreactivity
QVQLVESGGGLVQAGGSLRLSCAASGITFSRNTMGWYRQGPGKERELVAAITYSGGRTYYADSVKGRFTISRDNAKNTVYLQMNSLKPEDTAVYYCARRGTGKYPYYQHYYWGQGTQVTVSS	high polyreactivity
QVQLVESGGGLVQAGGSLRLSCAASGITFSRNVMGWYRQAPGKERELVAAISRSGGRTYYADSVKGRLTISRDNAKNTVYLQMNSLKPEDTAVYYCNRDIGGTSVLDDYWGQGTQVTVSS	low polyreactivity
QVQLVESGGGLVQAGGSLRLSCAASGITFSRYAMGWYRQAPGKERELVAAITWDGGRTYYADSVKGRFTISRDNAKNTVYLQMNSLKPEDTAVYYCAASRYSPVRWVWLYYWGQGTQVTVSS	high polyreactivity
QVQLVESGGGLVQAGGSLRLSCAASGITFSYNAMGWDRQAPGKERELVAAISSNSDSTYYADSVKGRFTISRDNAKNTVYLQMNSLKPEDTAVYYCAADTPDAPDYSGFYYWGQGTQVTVSS	low polyreactivity
QVQLVESGGGLVQAGGSLRLSCAASGITFSYNAMGWYRQAPGKEREFVAAISSNSDSTYYADSVKGRFTISRDTAKITVYLQMNSLKPEDTAVYYCAADTPDAPDYSGFYYWGQGTQVTVSS	low polyreactivity
QVQLVESGGGLVQAGGSLRLSCAASGITFSYNAMGWYRQAPGKERELVAAIRVGDGSTYYADSVKGRFTISRDNAKNTVYLQMNSLKPEDTAVNYCNARYLRLRYPYTDEYNYWGQGTQVTVSS	low polyreactivity
QVQLVESGGGLVQAGGSLRLSCAASGITFSYYAMGWYRPAPGKERELVAAISRTGTSTYYADSVKGRFTISRDNAKNTVYFQMNSLKPEDTAVYYCAAVPRHPYHDKYDYWGQGTQVTVSS	high polyreactivity
QVQLVESGGGLVQAGGSLRLSCAASGITFSYYAMGWYRQAPGKEREFVAAISWSGGSTYYADSVKGRFTISRDNAKNTVYLQMNSLKPEDTAVYYCAADRYPYGLDYWGQGTQVTVSS	high polyreactivity
QVQLVESGGGLVQAGGSLRLSCAASGITFSYYAMGWYRQAPGKERELVAAISRTGTSTYYADSVKGRFTISRDNAKNTVYLQMKSLKPEDTAVYDCAAVPRHPYHDKYDYWGQGTQVTVSS	high polyreactivity
QVQLVESGGGLVQAGGSLRLSCAASGITFTDYAMGWYRQAPGKERELVAAITGSGTSTYYADSVKGRFTISRDNAKNTVYLQMNSLKPEDTAVYYCAARTRGTAYNYWGQGTQVTVSS	high polyreactivity
QVQLVESGGGLVQAGGSLRLSCAASGITFTDYDMGWYRQAPGKERELVAAISNGGGSTYYADSVKGRFTISRDNAKNTVYLQMYSMKPEDTAVYYCAAERVPSWWVEWGVAQWDDYWGQGTQVTVSS	low polyreactivity
QVQLVESGGGLVQAGGSLRLSCAASGITFTGFAMGWYRQAPGKERELVAAITWSSGSTYYADSVKGRFTISRDNAKNTVYLQMNSLKPEDTAVYYCNAGYWYDGPDYIPEYDYWGQGTQVTVSS	low polyreactivity
QVQLVESGGGLVQAGGSLRLSCAASGITFTGYAMGWYRQAPGKERELVAAITWSSGSTYYADSVKGRFTISRDNAKNTVYLQMNSLKPEDTAVYYCNTDYGRYLYYRYGYWGQGTQVTVSS	low polyreactivity
QVQLVESGGGLVQAGGSLRLSCAASGITFTKYVMRWYRQAPGKERELVATIRWGASSTHYADSVKGRFTISRDNAKNTVYLQMNSLKPEDTAVYYCNADGWYGAVYWWFYGFDYWGQGTQVTVSS	low polyreactivity
QVQLVESGGGLVQAGGSLRLSCAASGITFTQYAMGWYRQAPGKERELVAAISKRGGRTYYADSVKGRFTISRDNAKNTVYLQMNSLKPEDTAVYYCATVPYGEVDYWGQGTQVTVSS	high polyreactivity
QVQLVESGGGLVQAGGSLRLSCAASGITFTRNAMGWYRQAPGKERELVAVITSSGRTKYADSVKGRFTISRDNAKNTVYLQMNSLKPEDTAVYYCAKVLFGTVPYGYWGHGTQVTVSS	high polyreactivity
QVQLVESGGGLVQAGGSLRLSCAASGITFTSYAMGWYRQAPGKERELVAAISWSGDRTYYADSVKGRFTISRDNAKNTVYLQMNSLKPEDTAVYYCAAEWVSPWTGPGFDYWGQGTQVTVSS	high polyreactivity
QVQLVESGGGLVQAGGSLRLSCAASGITFTTYAMGWYRQAPGKERELVATINRGSRTNYADSVKGRFTISRDNAKNTVYLQMNSLKAEDTAVYYCAAHYTTFIPSPDGDYLGQGTQVTVSS	low polyreactivity
